The values below come from patent publication US20030143595A1.

As a reminder, the Kd is the free concentration of one partner at which half of the binding sites on the other are occupied at equilibrium, for simple one-to-one binding. A low value points to tighter binding.

The assay deals with Shh-AP fusion protein (Sonic hedgehog fused to alkaline phosphatase). Briefly: ligand-receptor binding study, Scatchard analysis (FIG. 3).
Sequence of Shh-AP fusion protein (Sonic hedgehog fused to alkaline phosphatase) (Q62226 25-198): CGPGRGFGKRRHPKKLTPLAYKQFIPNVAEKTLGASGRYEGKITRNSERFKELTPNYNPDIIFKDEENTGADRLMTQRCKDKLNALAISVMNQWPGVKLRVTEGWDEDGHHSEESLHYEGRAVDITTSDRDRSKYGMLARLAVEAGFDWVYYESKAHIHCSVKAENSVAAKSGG

B1: murine HIP polypeptide (mouse hedgehog interacting protein) (receptor)
chain: LGFFEGDAKFGERSEGSGARRRRCLNGNPPKRLKRRDRRVMSQLELLSGGEILCGGFYPRVSCCLQSDSPGLGRLENKIFSATNNSECSRLLEEIQCAPCSPHSQSLFYTPERDVLDGDLALPLLCKDYCKEFFYTCRGHIPGLLQTTADEFCFYYARKDAGLCFPDFPRKQVRGPASNYLGQMEDYEKVGGISRKHKHNCLCVQEVMSGLRQPVSAVHSGDGSHRLFILEKEGYVKILTPEGELFKEPYLDIHKLVQSGIKGGDERGLLSLAFHPNYKKNGKLYVSYTTNQERWAIGPHDHILRVVEYTVSRKNPHQVDVRTARVFLEVAELHRKHLGGQLLFGPDGFLYIILGDGMITLDDMEEMDGLSDFTGSVLRLDVDTDMCNVPYSIPRSNPHFNSTNQPPEVFAHGLHDPGRCAVDRHPTDININLTILCSDSNGKNRSSARILQIIKGRDYESEPSLLEFKPFSNGPLVGGFVYRGCQSERLYGSYVFGDRNGNFLTLQQSPVTKQWQEKPLCLGASSSCRGYFSGHILGFGEDELGEVYILSSSKSMTQTHNGKLYKIVDPKRPLMPEECRVTVQPAQPLTSDCSRLCRNGYYTPTGKCCCSPGWEGDFCRIAKCEPACRHGGVCVRPNKCLCKKGYLGPQCEQVDRNVRRVTRAGILDQIIDMTSYLLDLTSYIV
As for B1, the dissociation constant Kd is 1 nM.
